Consider 2 molecules from patent US7285703B2, “Plant like starches and the method of making them in hosts” (BASF Plant Science GmbH, priority 1998, dated 2007).

Substrate in data set [1]: Nc1ncnc2c1ncn2[C@@H]1O[C@H](COP(=O)(O)OP(=O)(O)O[C@H]2O[C@H](CO)[C@@H](O)[C@H](O)[C@H]2O)[C@@H](O)[C@H]1O
As to the kind of experiment: ADPGlc kinetics of starch synthase SSIIa-1. Format: biochemical, maize. As to conditions: other: amylopectin as primer, −citrate, 27° C. An excerpt: FIG. 59. SSIIa-1 and SSIIa-2 construct diagram. Two forms of SSIIa were constructed in the pET expression system. pExs3c encodes SSIIa-1, the putative full length maize SSIIa which has the N-terminal sequence AEAEAGGK (SEQ ID NO:68). […] A depiction of the waxy gene, encoding GBSS which has the N-terminal sequence ASAGMNVV (SEQ ID NO:67), is also included for comparison. The amino acid motif KTGGL (SEQ ID NO:10), the putative binding site for ADPGlc, is indicated by the triangles. The KTGGL (SEQ ID NO:10) motif is located 18 amino acids from the N-terminus in GBSS, while the motif is 194 amino acids from the N-terminus in maize SSIIa.
5 mL of supernatant were used to assay STS and SBE activities as previously described (Preiss) with minor modification. […] […] The unincorporated [^14C]-ADPGlc was separated with Dowex anion exchange column (200-400 mesh, Sigma Chemical Co.). One unit of activity is defined as 1 nmol Glc incorporated into the a-glucan per min at 25° C. SBE activity was determined by phosphorylase stimulation assay. One unit of activity is defined as 1 mmol Glc incorporated into the a-glucan per min at. 30° C. […]

The next data set concerns maize starch synthases. As to the kind of experiment: Expression of maize starch synthases in Escherichia coli BL21 (DE3): specific activity. In kind it is biochemical. As to conditions: 25° C., 5 mg/mL glycogen as primer.

B1: maize starch synthase SSIIa-1, putative full length SSIIa (669 amino acids), N-terminus AEAEAGGK (SEQ ID NO:68) (Zea mays) (protein)
chain: AEAEAGGKDAPPERSGDAARLPRARRNAVSKRRDPLQPVGRYGSATGNTARTGAASCQNAALADVEIVEIKSIVAAPPTSIVKFPGRGLQDDPSLWDIAPETVLPAPKPLHESPAVDGDSNGIAPPTVEPLVQEATWDFKKYIGFDEPDEAKDDSRVGADDAGSFEHYGTMILGLCGENVMNVIVVAAECSPWCKTGGLGDVVGALPKALARRGHRVMVVVPRYGDYVEAFDMGIRKYYKAAGQDLEVNYFHAFIDGVDFVFIDASFRHRQDDIYGGSRQEIMKRMILFCKVAVEVPWHVPCGGVCYGDGNLVFIAMNWHTALLPVYLKAYYRDHGLMQYTRSVLVIHNIGHQGRGPVHEFPYMDLLNTNLQHFELYDPVGGEHANIFAACVLKMADRVVTVSRGYLWELKTVEGGWGLHDIIRSNDWKINGIRERIDHQEWNPKVDVHLRSDGYTNYSLETLDAGKRQCKAALQRDVGLEVRDDVPLLGFIGRLDGQKGVDIIGDAMPWIAGQDVQLVMLGTGPPDLERMLQHLEREHPNKVRGWVGFSVLMVHRITPGASVLVMPSRFAGGLNQLYAMAYGTVPVVHAVGGLRDTVAPFDPFGDAGLGWTFDRAEANKLIEVLSHCLDTYRNYEESWKSLQARGMSQNLSWDHAAELYEDVLVKYQW
As for B1, the Km in data set [1] came to 460 ± 60 µM.

B2: pEXS-wx: maize GBSS (waxy), N-terminus ASAGMNVVFV, expressed from this plasmid in E. coli BL21 (DE3) (protein, UniProt P04713 73-605, looked up)
Granule-bound starch synthase …: ASAGMNVVFVGAEMAPWSKTGGLGDVLGGLPPAMAANGHRVMVVSPRYDQYKDAWDTSVVSEIKMGDGYETVRFFHCYKRGVDRVFVDHPLFLERVWGKTEEKIYGPVAGTDYRDNQLRFSLLCQAALEAPRILSLNNNPYFSGPYGEDVVFVCNDWHTGPLSCYLKSNYQSHGIYRDAKTAFCIHNISYQGRFAFSDYPELNLPERFKSSFDFIDGYEKPVEGRKINWMKAGILEADRVLTVSPYYAEELISGIARGCELDNIMRLTGITGIVNGMDVSEWDPSRDKYIAVKYDVSTAVEAKALNKEALQAEVGLPVDRNIPLVAFIGRLEEQKGPDVMAAAIPQLMEMVEDVQIVLLGTGKKKFERMLMSAEEKFPGKVRAVVKFNAALAHHIMAGADVLAVTSRFEPCGLIQLQGMRYGTPCACASTGGLVDTIIEGKTGFHMGRLSVDCNVVEPADVKKVATTLQRAIKVVGTPAYEEMVRNCMIQDLSWKGPAKNWENVLLSLGVAGGEPGVEGEEIAPLAKENVAAP
modifications: expressed in E. coli
As for B2, in the data set on maize starch synthases, the “Specific Activities” value is 0.033 units/mg Protein.
